One molecule from patent US20020132976A1 (published 2002) can be followed below.

This assay concerns the target T1, membrane-bound HLA-A0201 molecule on T2 cells (human).
T1 construct: whole, on cells; also called surface HLA-A0201 molecules; human MHC class 1 molecule
Put plainly: T2 cell HLA-A0201 stabilisation, BB7.2 staining, flow cytometry. Here is the method:
Thus, the detection of this specific epitope is indicative of stable membrane-bound HLA-A0201 molecules loaded with peptide. Subsequent dissociation of peptides from the HLA class 1 MHC molecules results in the loss of BB7.2 monoclonal antibody binding.
T2 cells were propagated in Iscove's complete medium (iscove's medium supplemented with 10% heat-inactivated bovine serum, 120.0 units per ml of penicillin G sodium, 120 μg per ml of streptomycin sulphate, and 0.35 mg per ml of L-glutamine). The ability of PSA peptides (Table 1) to bind and stabilize surface HLA-A0201 molecules on T2 cells was determined utilizing a protocol documented in the art (Deng, Y. (1997) J Immune 158:1507-1515). In essence, 0.5×10⁶ T2 cells were incubated with 125.0 μM of the test peptide in 200.0 μl of serum-free culture medium (Iscove's medium supplemented with 120.0 units per ml of penicillin G sodium, 120.0 μg per ml of streptomycin sulphate and 0.35 mg per ml of L-glutamine) overnight at 37° C. Subsequently, cells were washed twice with Iscove's medium (without bovine serum) to remove free PSA peptide. […] The binding of BB7.2 was detected via the addition of 100.0 μl of PBA containing […] of goat anti-mouse IgG-Fc fluorescein (FITC) conjugate (BETHYL Laboratories Inc.). […] Samples were analyzed by Flow Cytometry. Results were expressed in units of Fluorescence Index (FI), calculated by the equation: […]
For orientation: In flow cytometry, cells or beads pass a laser one at a time.

With DLHVISNDV [CLP-317], the binding result was “no binding”.
